Reference: US20190134214A1, “GLP-1 Receptor Ligand Moiety Conjugated Oligonucleotides and Uses Thereof” (published 2019)
Square brackets hold non-standard residues; d marks the D form. Ends that are not written are not given here. Aib = CC(C)(N)C(=O)O

Key:
[1] = target: FLAG-tagged GLP1R, stably expressed in HEK 293 cells (LVX-GLP1R cells)
[2] = target: human GLP-1 receptor (hGLP1R), stably expressed in HEK293 cells (hGLP1R-HEK) (human, UniProt P43220); experiment: cell-based or functional assay
[3] = target: FLAG-tagged GLP1R, stably expressed in HEK 293 cells (LVX-GLP1R cells); remark: listed apart in the source
[4] = target: GLP-1 receptor of mouse primary islets of Langerhans (mouse, UniProt O35659); experiment: cell-based or functional assay

Binder	IC50 of MALAT-1 expression in GLP1R HEK cells [1]	IC50 of inhibition of MALAT1 mRNA in hGLP1R-HEK cells [2]	IC50 of peptide-conjugated ASO activity (MALAT1 RNA) in LVX-GLP1R cells [3]	Islet FOXO1 mRNA levels relative to control (RPLP0), percent of untreated, 96 hours, 1 µM [4]
H[Aib]EGTFTSDVSSYLEEQAAKEFIAWLVKGGPSSGAPPPSC-NH2 (not fully specified (residue 40); also: Cys40 disulfide via 3-mercaptopropionate linker to 5'-hexylamino ASO ISIS 786434) [GLP-1 conjugated MALAT1 ASO (ISIS 816385)]	0.26 µM	0.02 µM	0.35 µM	
H[Aib]EGTFTSDVSSYLEEQAAKEFIAWLVKGGPSSGAPPPSC-NH2 (not fully specified (residue 40); also: Cys40 disulfide to 3-mercaptopropionate linker) [5'-GLP-1 peptide conjugated ASO targeted to MALAT1 (ION 962963)]	0.35 µM			
H[Aib]EGTFTSDVSSYLEEQAAKEFIAWLVKGGPSSGAPPPSC-NH2 (not fully specified (residue 40); also: Cys40 disulfide via 3-mercaptopropionate linker to 5'-hexylamino ASO ION 913192) [GLP-1 peptide conjugated ASO targeted to FOXO1 (ION 913193)]				25%
